Where a chain is given by its changes, count along the chain named.
Key:
[1] = molecular target: T1, mouse PD-1 (Sino Biological Inc., Beijing, China) (mouse, UniProt Q02242 25-167, limits assumed); test: indirect ELISA, mouse PD-1 coated, HRP goat anti-human IgG
T1 sequence (looked up): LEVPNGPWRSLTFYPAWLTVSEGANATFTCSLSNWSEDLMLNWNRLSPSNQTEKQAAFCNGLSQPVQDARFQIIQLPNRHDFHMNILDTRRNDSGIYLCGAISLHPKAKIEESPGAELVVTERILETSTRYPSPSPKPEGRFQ
Excerpt: (§1) The HRP-labeled goat anti-human IgG antibody (The Jackson Laboratory) was used as the secondary antibody, and the detailed assay procedure was as described in Example 2.

[2] = molecular target: T2, Human PD-1 (Sino Biological Inc., Beijing, China) (human, UniProt Q15116 25-167); test: indirect ELISA, human PD-1 coated at 0.1 µg/mL, HRP goat anti-human IgG
T2 construct: also called hPD-1
T2 sequence (Q15116 25-167 limits assumed): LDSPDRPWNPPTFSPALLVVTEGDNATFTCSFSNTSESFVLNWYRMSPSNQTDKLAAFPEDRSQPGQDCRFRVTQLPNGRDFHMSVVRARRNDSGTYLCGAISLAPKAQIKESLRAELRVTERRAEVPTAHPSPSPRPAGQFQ
Excerpt: as §1

[3] = molecular target: T2, Human PD-1 (Sino Biological Inc., …); test: competitive ELISA, human PD-1 coated at 0.1 µg/mL, competitor Opdivo-HRP
Method: (§2) Human PD-1 (Sino Biological Inc., Beijing, China) was diluted to 0.1 μg/mL with PBS buffer and added to the 96-well plate at a volume of 100 μL/well and allowed to stand overnight at room temperature. The coating solution was removed, 200 μL of PBST/1% no-fat milk was added to each well and incubated at room temperature for 1 h for blocking. The blocking solution was removed and the plate was washed 3 times with PBST.

[4] = molecular target: T3, human PD-1/His (Sino Biological Inc.) (human, UniProt Q15116 25-170); test: affinity and kinetic constants; method not restated, taken as BLI of Example 3.4
T3 construct: extracellular domain; Bought protein; also called extracellular domain fragment of PD-1 protein containing His tag; not shown: His tag
T3 sequence (Q15116 25-170): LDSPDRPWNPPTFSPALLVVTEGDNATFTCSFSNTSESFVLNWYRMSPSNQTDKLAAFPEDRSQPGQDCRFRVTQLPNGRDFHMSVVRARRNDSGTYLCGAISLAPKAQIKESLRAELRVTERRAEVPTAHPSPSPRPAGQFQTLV

[5] = molecular target: T2, Human PD-1 (Sino Biological Inc., …); test: competitive ELISA, human PD-1 coated at 0.1 µg/mL, competitor Keytruda-HRP
Method: as §2

[6] = molecular target: T4, PD-1 expressed on the surface of activated human T cells (human, UniProt Q15116 25-288); test: flow cytometry on activated human T cells, FITC goat anti-human IgG
T4 construct: whole, on cells
T4 sequence (Q15116 25-288): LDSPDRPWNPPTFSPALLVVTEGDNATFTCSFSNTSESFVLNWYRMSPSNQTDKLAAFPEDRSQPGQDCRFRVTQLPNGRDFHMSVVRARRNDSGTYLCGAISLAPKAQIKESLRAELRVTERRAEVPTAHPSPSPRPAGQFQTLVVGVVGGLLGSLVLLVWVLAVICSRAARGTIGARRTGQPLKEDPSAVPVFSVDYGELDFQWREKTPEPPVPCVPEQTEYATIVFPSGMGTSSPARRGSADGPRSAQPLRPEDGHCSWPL
Method: Fresh mononuclear cells were obtained from human peripheral blood by density gradient centrifugation (Lymphoprep™, human lymphocyte separation solution, […]), and high purity T lymphocytes were obtained using T cell isolation reagents ([…]). The T lymphocytes were stimulated with 5 μg/mL of the anti-CD3 antibody for 48 h, and cultured for 7 days after addition of 250 IU/mL of human IL-2. A large number of activated T lymphocytes were then obtained. […] The FITC signals were detected by flow cytometry.

[7] = molecular target: T3, human PD-1/His (Sino Biological Inc.); test: competitive ELISA: PD-1/His coated at 2 µg/mL, blocks biotin-labeled PD-L1/Fc
Method: The extracellular domain fragment of PD-1 protein containing His tag was coated onto the 96-well ELISA plate.
PD-1/His was diluted to 2 μg/mL with PBS buffer, pH 7.2, and added to the 96 well ELISA plate at 100 μL per well and incubated with shaking at room temperature for 1 h. The PBS buffer was aspirated from the 96-well ELISA plate. 200 μL of PBST(PBS containing 0.05% Tween 20, pH 7.4)/1% no-fat milk was added to each well and incubated at room temperature for 1 h for blocking. The plate was washed 3 times with PBST. 50 μL of the anti-PD-1 antibody to be tested was added to each well, which was diluted with the blocking solution to an appropriate concentration. […] Incubating at room temperature for 1 h. The plate was washed 3 times with PBST. 100 μL of SA-Avidin-HRP (HRP-labeled streptavidin) diluted at 1:250 ratio with the blocking solution was added to each well, and incubated at room temperature for 1 h. Washing the plate 3 times with PBST. 100 μL of the TMB substrate solution was added to each well and incubated at room temperature for 5-10 min. Adding 50 μL of 0.2 M sulfuric acid to each well to terminate the reaction. The absorbance values were read at 450 nm in a microplate reader.

[8] = molecular target: T5, PD-1 overexpressed on the surface of CHO cells (Homo sapiens (Human), UniProt Q15116 25-288); test: flow cytometry on PD-1-overexpressing CHO cells, FITC goat anti-human IgG
T5 construct: also called PD-1-overexpressing CHO cells
T5 sequence (Q15116 25-288 limits assumed): as the sequence (Q15116 25-288) above
Excerpt: FACS (fluorescence activated cell sorting) is a test used for detection of the binding between proteins and cells. The test was used to detect the binding activity of the humanized anti-PD-1 antibodies of the present invention to native PD-1 expressed on the cell surface. The cells used in the test were PD-1-overexpressing CHO cells.

[9] = molecular target: T6, human ICOS/Fc (Sino Biological Inc.) (human, UniProt Q9Y6W8 21-141, limits assumed); test: indirect ELISA, human ICOS/Fc coated at 0.1 µg/mL, HRP goat anti-mouse IgG
T6 construct: Bought protein; not shown: Fc
T6 sequence (looked up): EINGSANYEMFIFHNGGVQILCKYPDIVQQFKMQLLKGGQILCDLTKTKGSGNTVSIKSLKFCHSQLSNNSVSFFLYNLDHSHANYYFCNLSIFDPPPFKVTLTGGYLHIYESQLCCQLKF
Method: (§3) Human PD-1/His, human ICOS/Fc, human CTLA4/His, human CD28/Fc, cynomolgus monkey PD-1/Fc, and mouse PD-1/His (all from Sino Biological Inc., Beijing, China) were diluted with PBS buffer to 0.1 μg/mL, and added to the 96-well plate at a volume of 100 μL/well and placed at 16° C. for 16 to 20 h. The PBS buffer was aspirated from the 96-well plate, and the plate was washed once with PBST (PBS containing 0.05% Tween 20, pH 7.4). 200 μL of PBST/1% no-fat milk was added to each well and incubated at room temperature for 1 h for blocking. The blocking solution was removed and the plate was washed 3 times with PBST. 100 μL of the anti-PD-1 antibody to be tested was added to each well, and incubated at room temperature for 1.5 h. The reaction solution was removed and the plate was washed 3 times with PBST. 50 μL of the HRP-labeled goat anti-mouse IgG secondary antibody (The Jackson Laboratory) diluted (dilution ratio 1:4000) was added to each well. Incubated at room temperature for 1 h. The plate was washed 3 times with PBST. 100 μL of the TMB was added to each well and incubated at room temperature for 5-10 min 50 μL of 0.2 M sulfuric acid was added to each well to terminate the reaction. Absorbance values were read at dual wavelengths of 450/620 nm in a microplate reader.

[10] = molecular target: T7, mouse PD-1/His (Sino Biological Inc.) (mouse, UniProt Q02242 25-167); test: indirect ELISA, mouse PD-1/His coated at 0.1 µg/mL, HRP goat anti-mouse IgG
T7 construct: Bought protein; not shown: His tag
T7 sequence (looked up): T1 sequence (looked up)
Method: as §3

[11] = molecular target: T8, human CTLA4/His (Sino Biological Inc.) (human, UniProt P16410 36-162, limits assumed); test: indirect ELISA, human CTLA4/His coated at 0.1 µg/mL, HRP goat anti-mouse IgG
T8 construct: Bought protein; not shown: His tag
T8 sequence (P16410 36-162 limits assumed): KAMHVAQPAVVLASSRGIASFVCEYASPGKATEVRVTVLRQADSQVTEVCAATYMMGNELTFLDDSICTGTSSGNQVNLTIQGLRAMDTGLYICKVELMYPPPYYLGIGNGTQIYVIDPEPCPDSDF
Method: as §3

[12] = molecular target: T9, cynomolgus monkey PD-1/Fc (Sino Biological Inc.) (cynomolgus monkey, UniProt B0LAJ3 25-170); test: indirect ELISA, cynomolgus monkey PD-1/Fc coated at 0.1 µg/mL, HRP goat anti-mouse IgG
T9 construct: Bought protein
T9 sequence (B0LAJ3 entry or part of it limits assumed): as the sequence (Q15116 25-170) above, with D2E, P10A, V19L, T35A, Q75R, T144A counted along it
Method: as §3

B1: mouse-human chimeric antibody AB12M2 (antibody, V domains shown)
VH: EVKLVESGGGLVKPGGSLKLSCAASGFTFSSYGMSWVRQTPEKRLEWVATISGGGRDTYYPDSVKGRFTISRDNAKNNLYLQMSSLRSEDTALYYCARQKDTSWFVHWGQGTLVTVSA
VL: not shown
For B1, the binding result [1] was “no binding (tested: 10 µg/ml)”, the “EC50 (read off the curve)” value [2] was roughly 0.003 µg/mL and the “IC50 (read off the curve)” value [3] was roughly 0.08 µg/mL. For the same binder, the Kd [4] was less than 0.001 nM, the koff [4] was less than 1e-07 s⁻¹ and the kon [4] was 198000 M⁻¹ s⁻¹. For the same binder, the “IC50 (read off the curve)” value [5] was roughly 0.07 µg/mL.

B2: humanized antibody AB12M3 (antibody, V domains shown)
VH: B1 VH with K3Q, K13Q, K19R, T40A, E42G, R44G, S84N, S88A, A118S
VL: EIVLTQSPATLSLSPGERATLSCRASESVDDYGISFMNWFQQKPGQAPKLLIYVASNQGSGVPARFSGSGSGTDFSLTISSLEPDDTAMYFCQQSKEVPWTFGGGTKVEIK
notes: the description speaks of human IgG4 or IgG1 and human kappa only as embodiments
B2 was tested, and the binding result [1] was “no binding (tested: 10 µg/ml)”, the “EC50 (read off the curve)” value [6] was roughly 0.8 nM and the IC50 [7] was 0.114 nM. For the same binder, the “EC50 (read off the curve)” value [2] was roughly 0.003 µg/mL, the “IC50 (read off the curve)” value [3] was roughly 0.1 µg/mL and the “EC50 (read off the curve)” value [8] was roughly 1 nM. For the same binder, the Kd [4] was less than 0.001 nM, the koff [4] was less than 1e-07 s⁻¹ and the kon [4] was 226000 M⁻¹ s⁻¹. For the same binder, the “IC50 (read off the curve)” value [5] was roughly 0.09 µg/mL.

B3: humanized antibody AB12M4 (antibody, V domains shown)
VH: B1 VH with K19R
VL: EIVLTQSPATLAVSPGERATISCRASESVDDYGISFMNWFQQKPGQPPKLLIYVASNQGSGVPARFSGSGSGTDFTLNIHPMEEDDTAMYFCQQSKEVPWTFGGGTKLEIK
For B3, the binding result [1] was “no binding (tested: 10 µg/ml)”, the IC50 [7] was 0.096 nM and the “EC50 (read off the curve)” value [2] was roughly 0.003 µg/mL. For the same binder, the “IC50 (read off the curve)” value [3] was roughly 0.1 µg/mL, the “EC50 (read off the curve)” value [8] was roughly 1 nM and the Kd [4] was less than 0.001 nM. The koff [4] was less than 1e-07 s⁻¹, the kon [4] was 213000 M⁻¹ s⁻¹ and the “IC50 (read off the curve)” value [5] was roughly 0.09 µg/mL.

B4: murine monoclonal antibody AB12N1 (antibody, mouse IgG1, V domains shown)
VH: QVQLVESGGGVVQPGRSLRLDCKASGITFSNSGMHWVRQAPGKGLEWVAVIWYDGSKRYYADSVKGRFTISRDNSKNTLFLQMNSLRAEDTAVYYCATNDDYWGQGTLVTV
VL: EIVLTQSPATLSLSPGERATLSCRASQSVSSYLAWYQQKPGQAPRLLIYDASNRATGIPARFSGSGSGTDFTLTISSLEPEDFAVYYCQQSSNWPRTFGQGTKVEIK
notes: subclass identified as mouse IgG1 (Kappa), purified from hybridoma supernatant; also called antibody of hybridoma clone #22
B4: no binding (tested: 10 µg/mL) [9]; no binding (tested: 10 µg/mL) [10]; no binding (tested: 10 µg/mL) [11]. B4: no binding (tested: 10 µg/mL) [12].

B5: humanized antibody AB12N3 (antibody, V domains shown)
VH: QVQLVESGGGVVQPGRSLRLSCAASGITFSNSGMHWVRQAPGKGLEWVAVWYDGSKRYYADSVKGRFTISRDNSKNTLYLQMNSLRAEDTAVYYCATNDDYWGQGTLVTV
VL: B4 VL
In the case of B5, the Kd [4] is reported as 0.365 nM, the koff [4] is reported as 2.28e-05 s⁻¹ and the kon [4] is reported as 62400 M⁻¹ s⁻¹.

B6: humanized antibody AB12N5 (antibody, V domains shown)
VH: B5 VH with Y79F
VL: B4 VL
B6 gave a Kd [4] of 0.414 nM, a koff [4] of 2.56e-05 s⁻¹ and a kon [4] of 61900 M⁻¹ s⁻¹.

B7: humanized antibody AB12N4 (antibody, V domains shown)
VH: B4 VH with D21S, K23A, F80Y
VL: B4 VL
Work on B7 yielded a Kd [4] of 0.378 nM, a koff [4] of 2.41e-05 s⁻¹ and a kon [4] of 63700 M⁻¹ s⁻¹.

Source: patent publication US20190367617A1 (AMPSOURCE BIOPHARMA SHANGHAI, published 2019)
